These are literature values, as cited in US6878743B2, “Small molecule inhibitors of caspases” (Sunesis Pharmaceuticals, Inc., priority 2001, dated 2005).

One data set addresses T1, caspase-1 (Homo sapiens, UniProt P29466).
T1 sequence (P29466 120-297 limits assumed): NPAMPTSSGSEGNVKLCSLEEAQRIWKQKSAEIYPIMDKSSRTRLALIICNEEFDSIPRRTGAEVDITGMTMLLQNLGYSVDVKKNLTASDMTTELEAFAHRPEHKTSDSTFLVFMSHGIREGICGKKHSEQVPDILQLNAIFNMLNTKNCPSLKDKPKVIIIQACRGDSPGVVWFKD
T1 sequence (P29466 317-404 limits assumed): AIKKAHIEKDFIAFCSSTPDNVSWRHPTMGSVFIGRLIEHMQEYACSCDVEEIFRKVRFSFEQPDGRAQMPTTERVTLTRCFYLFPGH
The settings on record: Garcia-Calvo et al. 1998.

Another data set addresses T2, caspase-3 (Homo sapiens, UniProt P42574).
T2 sequence (P42574 29-175 limits assumed): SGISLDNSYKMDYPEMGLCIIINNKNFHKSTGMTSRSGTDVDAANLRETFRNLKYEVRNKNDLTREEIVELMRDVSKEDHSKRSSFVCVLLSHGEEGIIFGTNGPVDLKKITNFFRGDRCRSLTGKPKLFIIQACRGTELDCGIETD
T2 sequence (P42574 176-277 limits assumed): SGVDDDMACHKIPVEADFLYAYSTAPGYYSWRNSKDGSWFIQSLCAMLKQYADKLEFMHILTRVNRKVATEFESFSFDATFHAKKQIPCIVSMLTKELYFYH
The settings on record: Garcia-Calvo et al. 1998.

As to Ac-Tyr-Val-Ala-Asp-CHO, the Ki with caspase-1 was 0.056 nM; with caspase-3, 1960 nM. For Ac-Asp-Glu-Val-Asp-CHO, the Ki in the data set with caspase-1 was 18 nM.
